Tests used:
[1] = target: MjNhaP1 D161A mutant (NhaP1 Na+/H+ antiporter from Methanocaldococcus jannaschii) (Methanocaldococcus jannaschii) (UniProt Q60362); experiment: Western blotting; dimers observed by Western blotting; data not shown; no conditions told
[2] = target: MjNhaP1 N160A mutant (NhaP1 Na+/H+ antiporter from Methanocaldococcus jannaschii) (Methanocaldococcus jannaschii) (UniProt Q60362); experiment: as above

Substance	stoichiometry N [1]	stoichiometry N [2]
MjNhaP1 D161A mutant (NhaP1 Na+/H+ antiporter from Methanocaldococcus jannaschii) (from UniProt Q60362 1-426) (natural protein)	2	
MjNhaP1 N160A mutant (NhaP1 Na+/H+ antiporter from Methanocaldococcus jannaschii) (from UniProt Q60362 1-426) (natural protein)		2
